Experimental findings from patent US20180086821A1 (MAYO FOUNDATION FOR MEDICAL EDUCATION AND RESEARCH, published 2018) are described below.

Assay [1] deals with T1, human RBC spectrin (human, UniProt P02549 1-2419; P11277 2-2137).
T1 construct: Bought from Sigma; also called human erythrocyte spectrin
As to the kind of experiment: direct ELISA, antigen coated at 5 µg/ml.
Description: (§1) Human RBC spectrin, bovine myosin (heavy chain), mouse albumin, mouse hemoglobin, mouse transferrin, hen egg lysozyme, rabbit actin, rabbit myelin basic protein, and keyhole limpet hemocyanin (KLH) were purchased from Sigma. Proteins were tested for purity by SDS-polyacrylamide gel electrophoresis. […] Protein antigens were used at 5 μg/ml, and hapten was used at 2 μM. The proteins and hapten-BSA antigens were coated onto polystyrene or polyvinylchloride microtiter plates in 0.1 M carbonate buffer, pH 9.5, for 18 hours at 4° C. Coated plates were blocked with PBS containing 5% nonfat dry mild and 0.05% Tween 20 for 2 hours at room temperature, and incubated with mAbs diluted in blocking buffer (2 μg/ml) for 4 hours at room temperature. […] Bound IgM was detected with biotinylated goat anti-mouse IgM (p chain specific; Jackson Immunoresearch, West Grove, Pa.) followed by alkaline phosphatase conjugated to streptavidin, with p-nitrophenylphosphate as the chromogenic substrate. Absorbance was determined at 405 nm.

The next assay addresses T2, mouse albumin (mouse, UniProt P07724 25-608).
T2 construct: Bought from Sigma
As to the kind of experiment: direct ELISA, antigen coated at 5 µg/ml. On the technique in general: ELISA stands for enzyme-linked immunosorbent assay.

A further assay concerns the target T3, mouse hemoglobin (mouse, UniProt P01942 2-142; P02088 2-147).
T3 construct: Bought from Sigma; also called Mo Hb
As to the kind of experiment: direct ELISA, antigen coated at 5 µg/ml.

The target of the next assay is T4, mouse transferrin (mouse, UniProt Q921I1 20-697).
T4 construct: Bought from Sigma
In words: direct ELISA, antigen coated at 5 µg/ml.

The next assay addresses T5, hen egg lysozyme (hen (chicken), UniProt P00698 19-147).
T5 construct: Bought from Sigma; also called HEL
As to the kind of experiment: direct ELISA, antigen coated at 5 µg/ml.

Assay [2] deals with T6, rabbit myelin basic protein (rabbit, UniProt P25274 1-168).
T6 construct: Bought from Sigma; also called rabbit MBP
In words: direct ELISA, antigen coated at 5 µg/ml.
Description: as §1

The target in assay [3] is T7, bovine serum albumin (BSA) (bovine, UniProt P02769 25-607).
T7 construct: Carrier alone, without hapten; also called carrier protein BSA
In words: solid-phase ELISA.

Assay [4] deals with T1, human RBC spectrin. As to the kind of experiment: direct ELISA, mAb at 2 µg/ml.
Description: as §1

T1 sequence (P02549 whole entry, chain 1 of 2): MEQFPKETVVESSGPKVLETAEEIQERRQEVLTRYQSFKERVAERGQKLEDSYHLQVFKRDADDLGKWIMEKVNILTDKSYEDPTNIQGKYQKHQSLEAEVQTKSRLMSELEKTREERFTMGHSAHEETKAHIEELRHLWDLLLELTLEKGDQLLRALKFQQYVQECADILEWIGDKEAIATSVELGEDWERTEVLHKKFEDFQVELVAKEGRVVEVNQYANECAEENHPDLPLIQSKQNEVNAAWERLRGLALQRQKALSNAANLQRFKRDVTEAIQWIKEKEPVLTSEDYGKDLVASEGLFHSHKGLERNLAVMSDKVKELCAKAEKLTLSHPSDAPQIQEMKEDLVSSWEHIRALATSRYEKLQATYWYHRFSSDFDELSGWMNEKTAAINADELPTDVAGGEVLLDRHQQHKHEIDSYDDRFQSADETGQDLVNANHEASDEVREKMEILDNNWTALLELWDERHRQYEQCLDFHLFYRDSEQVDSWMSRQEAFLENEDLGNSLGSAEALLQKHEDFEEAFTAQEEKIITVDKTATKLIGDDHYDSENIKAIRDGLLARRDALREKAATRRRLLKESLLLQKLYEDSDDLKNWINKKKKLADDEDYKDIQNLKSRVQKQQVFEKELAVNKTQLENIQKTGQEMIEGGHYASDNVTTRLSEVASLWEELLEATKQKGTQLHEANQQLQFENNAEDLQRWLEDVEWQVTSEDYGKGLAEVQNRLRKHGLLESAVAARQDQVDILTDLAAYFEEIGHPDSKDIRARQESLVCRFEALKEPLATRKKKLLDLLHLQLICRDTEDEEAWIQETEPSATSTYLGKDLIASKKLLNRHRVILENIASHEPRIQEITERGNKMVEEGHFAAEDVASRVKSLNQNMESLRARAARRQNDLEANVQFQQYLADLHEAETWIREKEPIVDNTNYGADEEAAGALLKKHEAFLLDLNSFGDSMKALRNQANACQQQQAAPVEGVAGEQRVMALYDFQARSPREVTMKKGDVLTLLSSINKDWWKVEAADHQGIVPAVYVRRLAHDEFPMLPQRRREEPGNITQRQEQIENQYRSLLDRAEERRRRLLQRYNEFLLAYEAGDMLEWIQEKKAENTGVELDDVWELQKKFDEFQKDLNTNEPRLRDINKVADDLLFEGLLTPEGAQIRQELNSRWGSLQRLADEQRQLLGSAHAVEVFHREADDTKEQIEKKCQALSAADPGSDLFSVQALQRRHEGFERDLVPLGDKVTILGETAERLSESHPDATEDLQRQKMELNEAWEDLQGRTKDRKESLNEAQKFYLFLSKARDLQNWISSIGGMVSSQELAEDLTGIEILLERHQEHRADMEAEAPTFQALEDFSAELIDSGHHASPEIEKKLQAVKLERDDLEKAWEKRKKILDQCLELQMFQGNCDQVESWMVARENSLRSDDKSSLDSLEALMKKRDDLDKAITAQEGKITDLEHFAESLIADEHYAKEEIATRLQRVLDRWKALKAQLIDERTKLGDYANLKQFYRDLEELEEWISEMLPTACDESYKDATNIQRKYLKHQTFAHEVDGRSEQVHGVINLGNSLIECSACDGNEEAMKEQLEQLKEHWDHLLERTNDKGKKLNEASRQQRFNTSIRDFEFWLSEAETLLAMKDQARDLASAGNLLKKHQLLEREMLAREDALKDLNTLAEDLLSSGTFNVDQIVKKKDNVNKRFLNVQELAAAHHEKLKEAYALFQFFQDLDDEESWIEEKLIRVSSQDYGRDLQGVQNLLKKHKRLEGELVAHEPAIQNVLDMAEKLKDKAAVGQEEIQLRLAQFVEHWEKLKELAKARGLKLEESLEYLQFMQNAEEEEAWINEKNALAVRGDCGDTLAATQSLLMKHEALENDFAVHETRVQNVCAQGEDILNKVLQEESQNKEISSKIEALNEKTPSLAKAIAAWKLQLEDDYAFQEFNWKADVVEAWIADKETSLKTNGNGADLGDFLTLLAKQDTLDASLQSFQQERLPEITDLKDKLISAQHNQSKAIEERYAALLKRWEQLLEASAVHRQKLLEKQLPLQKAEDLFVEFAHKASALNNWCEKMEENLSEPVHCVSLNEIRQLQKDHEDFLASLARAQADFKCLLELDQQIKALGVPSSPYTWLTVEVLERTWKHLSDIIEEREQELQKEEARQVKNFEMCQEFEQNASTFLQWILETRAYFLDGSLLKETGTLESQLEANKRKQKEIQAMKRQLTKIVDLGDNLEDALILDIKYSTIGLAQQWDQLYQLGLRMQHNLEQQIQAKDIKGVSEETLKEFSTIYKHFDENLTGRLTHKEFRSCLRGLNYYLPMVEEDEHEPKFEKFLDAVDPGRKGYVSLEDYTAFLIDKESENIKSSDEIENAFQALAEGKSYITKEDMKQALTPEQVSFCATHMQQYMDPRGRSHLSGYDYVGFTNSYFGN
T1 sequence (P11277 2-2137, chain 2 of 2): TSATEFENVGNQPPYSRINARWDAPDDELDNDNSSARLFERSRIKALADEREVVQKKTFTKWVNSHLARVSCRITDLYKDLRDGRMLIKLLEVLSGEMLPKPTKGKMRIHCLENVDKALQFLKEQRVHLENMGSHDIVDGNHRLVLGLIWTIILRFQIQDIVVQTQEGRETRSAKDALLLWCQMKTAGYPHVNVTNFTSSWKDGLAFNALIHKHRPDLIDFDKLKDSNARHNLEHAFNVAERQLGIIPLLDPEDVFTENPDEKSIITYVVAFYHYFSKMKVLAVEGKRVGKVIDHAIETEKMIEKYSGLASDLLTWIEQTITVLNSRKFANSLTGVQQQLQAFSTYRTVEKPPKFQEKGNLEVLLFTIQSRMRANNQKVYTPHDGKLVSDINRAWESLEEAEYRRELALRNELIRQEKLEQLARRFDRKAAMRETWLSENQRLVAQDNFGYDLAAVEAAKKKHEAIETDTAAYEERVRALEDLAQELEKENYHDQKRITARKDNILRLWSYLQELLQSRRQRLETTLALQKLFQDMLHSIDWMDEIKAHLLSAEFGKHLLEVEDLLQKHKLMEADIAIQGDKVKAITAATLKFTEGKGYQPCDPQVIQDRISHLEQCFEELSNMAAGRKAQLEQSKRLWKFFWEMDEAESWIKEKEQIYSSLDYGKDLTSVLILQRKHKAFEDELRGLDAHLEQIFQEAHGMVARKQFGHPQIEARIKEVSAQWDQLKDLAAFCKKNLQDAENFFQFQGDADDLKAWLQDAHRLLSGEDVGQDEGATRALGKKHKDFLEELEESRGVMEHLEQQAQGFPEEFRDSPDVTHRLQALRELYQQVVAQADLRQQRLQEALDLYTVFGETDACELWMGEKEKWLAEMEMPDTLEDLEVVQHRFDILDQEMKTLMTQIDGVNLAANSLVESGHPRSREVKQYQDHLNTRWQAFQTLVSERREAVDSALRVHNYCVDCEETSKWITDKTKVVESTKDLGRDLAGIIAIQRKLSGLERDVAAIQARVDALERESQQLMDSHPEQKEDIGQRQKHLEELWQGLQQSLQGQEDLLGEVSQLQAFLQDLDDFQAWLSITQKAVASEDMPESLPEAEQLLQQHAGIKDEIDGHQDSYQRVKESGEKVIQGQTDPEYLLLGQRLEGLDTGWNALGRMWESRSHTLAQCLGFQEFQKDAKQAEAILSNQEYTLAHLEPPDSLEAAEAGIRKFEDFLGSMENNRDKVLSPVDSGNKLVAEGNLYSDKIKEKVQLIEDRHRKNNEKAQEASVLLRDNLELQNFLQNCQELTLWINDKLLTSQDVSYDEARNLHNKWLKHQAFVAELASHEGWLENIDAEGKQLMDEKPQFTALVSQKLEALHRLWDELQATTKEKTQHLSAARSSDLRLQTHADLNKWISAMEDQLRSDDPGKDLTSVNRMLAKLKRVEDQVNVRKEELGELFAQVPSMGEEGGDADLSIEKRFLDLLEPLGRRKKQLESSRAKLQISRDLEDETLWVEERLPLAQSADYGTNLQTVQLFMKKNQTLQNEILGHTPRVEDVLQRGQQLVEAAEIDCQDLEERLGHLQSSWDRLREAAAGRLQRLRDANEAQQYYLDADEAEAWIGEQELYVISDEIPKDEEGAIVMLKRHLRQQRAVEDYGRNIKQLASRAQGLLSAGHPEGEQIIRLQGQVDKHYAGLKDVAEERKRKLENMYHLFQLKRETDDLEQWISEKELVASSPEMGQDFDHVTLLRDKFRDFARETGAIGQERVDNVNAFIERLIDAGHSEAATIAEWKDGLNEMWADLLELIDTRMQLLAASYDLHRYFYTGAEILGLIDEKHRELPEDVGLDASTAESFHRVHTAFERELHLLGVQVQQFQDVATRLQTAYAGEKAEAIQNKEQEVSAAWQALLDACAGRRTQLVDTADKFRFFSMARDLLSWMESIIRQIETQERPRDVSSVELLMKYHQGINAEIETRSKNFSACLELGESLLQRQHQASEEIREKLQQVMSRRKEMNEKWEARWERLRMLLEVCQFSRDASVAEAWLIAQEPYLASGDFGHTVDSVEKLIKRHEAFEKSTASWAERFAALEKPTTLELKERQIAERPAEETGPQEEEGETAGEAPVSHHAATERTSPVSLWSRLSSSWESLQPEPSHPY
T5 sequence (P00698 19-147): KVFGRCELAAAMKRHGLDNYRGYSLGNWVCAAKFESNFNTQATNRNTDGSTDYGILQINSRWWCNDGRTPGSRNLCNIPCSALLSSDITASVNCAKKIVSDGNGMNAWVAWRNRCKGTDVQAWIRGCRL
T6 sequence (P25274 whole entry): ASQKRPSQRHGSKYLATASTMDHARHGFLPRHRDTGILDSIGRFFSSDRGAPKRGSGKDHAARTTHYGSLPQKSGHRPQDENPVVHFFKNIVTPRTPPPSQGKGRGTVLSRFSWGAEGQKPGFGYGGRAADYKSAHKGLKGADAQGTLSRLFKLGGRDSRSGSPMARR
Description for hen egg lysozyme: as §1
Description for mouse albumin: as §1
Description for mouse hemoglobin: as §1
Description for mouse transferrin: as §1

B1: mAb A2B5 (antibody, mouse IgM, V domains shown)
VH: EVKLVESGGGLVQPGGSLRLSCATSGFTFSDFYMEWVRQPPGKRLEWIAASRNKANDYTTEYSASVKGRFIVSRDTSQSILYLQMNALRAEDTAIYYCARDARQLGLPAWFAYWGQGTLVTVSA
VL: QIVLTQSPAIMSASPGEKVTISCSASSSVSYMYWYQQKPGSSPKPWIYRTSNLASGVPARFSGSGSGTSYSLTISSMEAEDAATYYCQQYHSYPLTFGAGTKLELKR
notes: Mouse IgM kappa
B1: the binding result (with human RBC spectrin [1]; with mouse albumin; with mouse hemoglobin; in the assay with mouse transferrin; with hen egg lysozyme; in assay [2]) was “no binding (tested: mAbs at 2 µg/ml)” in each case.

B2: monoclonal antibody SCH94.03 (antibody, V domains shown)
VH: QVQLQQPGTELVKPGASVKLSCKASGYTFTSYWMHWVKQRPGQGLEWIGNINPSNGGTNYNEKFKSKATLTVDKSSSTAYMQLSSLTSEDSAVYYCARRAPYYGSRNFDYWGQGTTLTVSS
VL: DIQMTQTTSSLSASLGDRVTISCRASQDISNYLNWYQQKPDGTVKLLIYYTSRLHSGVPSRFSGSGSGTDYSLTISNLEQEDIATYFCQQGNTLPWTFGGGTKLEIKR
As for B2, the binding result in assay [3] is “no binding”.

B3: mAb O1 (antibody, V domains shown)
VH: QVQLQQSGPELVKPGALVKISCKASGYTFTSYDINWVKQRPGQGLEWIGWIYPGDGSTKYNEKFKGKATLTADKSSSTAYMQLSSLTSENSAVYFCARGARFYWYFDVWGAGTTVTVSS
VL: DVQITQSPSYLAASPGETITINCRASKSISKYLAWYQEKPGKTNKLLIYSGSTLQSGIPSRFSGSGSGTDFTLTISSLEPEDFAMYYCQQHNEYPYTFGGGTKLEIKR
notes: Mouse IgM kappa; Entries may include the leader peptide; The hybridoma also makes the MOPC21 kappa chain; also called 01
Take B3: the binding result in the assay with human RBC spectrin [4] is “binds”.
